Assay results published in IntAct's records for PubMed 19395483.

B1: ATP-dependent protease ATPase subunit HslU (Escherichia coli (strain K12)), P0A6H5 (parent)
chain: MSEMTPREIVSELDKHIIGQDNAKRSVAIALRNRWRRMQLNEELRHEVTPKNILMIGPTGVGKTEIARRLAKLANAPFIKVEATKFTEVGYVGKEVDSIIRDLTDAAVKMVRVQAIEKNRYRAEELAEERILDVLIPPAKNNWGQTEQQQEPSAARQAFRKKLREGQLDDKEIEIDLAAAPMGVEIMAPPGMEEMTSQLQSMFQNLGGQKQKARKLKIKDAMKLLIEEEAAKLVNPEELKQDAIDAVEQHGIVFIDEIDKICKRGESSGPDVSREGVQRDLLPLVEGCTVSTKHGMVKTDHILFIASGAFQIAKPSDLIPELQGRLPIRVELQALTTSDFERILTEPNASITVQYKALMATEGVNIEFTDSGIKRIAEAAWQVNESTENIGARRLHTVLERLMEEISYDASDLSGQNITIDADYVSKHLDALVADEDLSRFIL
partner: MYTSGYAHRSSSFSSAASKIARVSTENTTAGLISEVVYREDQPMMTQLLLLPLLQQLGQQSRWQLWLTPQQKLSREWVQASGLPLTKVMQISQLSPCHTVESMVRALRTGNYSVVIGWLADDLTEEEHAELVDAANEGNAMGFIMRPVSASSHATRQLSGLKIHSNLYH

Variants of: B1
Details: with sula_ecoli sulA
In the case of V89I, the “effect of a mutation on the interaction” value is reported as “increasing interaction strength”. I186N was tested, and the “effect of a mutation on the interaction” value was “disrupting interaction strength”.
